For one test, the target named is HLA-A*01:01. Briefly: IEDB peptide-MHC binding, purified MHC/direct/fluorescence; filed as Kd, often an IC50 or EC50 that approximates it; ≥ and ≤ were set here for values at or beyond the usual limits of such assays.
Test [1] addresses HLA-A*02:01. Described as above.
The next test deals with HLA-A*03:01. The description is as above.
Another test deals with HLA-A*11:01. The test is described as above.
The next test deals with HLA-A*26:01. Described as above.
The next test has as its target HLA-A*31:01. Described as above.
The next test concerns the target HLA-A*69:01. The test is described as above.
In test [2] the target is HLA-B*07:02. The description is as above.
In a further test the target is HLA-B*08:01. The description is as above.
In another test the target is HLA-B*15:01. The test is described as above.
A further test concerns the target HLA-B*27:05. The description is as above.
In a further test the target is HLA-B*40:01. The description is as above.
The target in a further test is HLA-B*44:02. The test is described as above.
The next test deals with HLA-B*58:01. Described as above.
The target of test [3] is HLA-A*02:01. Put plainly: IEDB peptide-MHC binding, purified MHC/competitive/fluorescence; filed as Kd, often an IC50 or EC50 that approximates it; ≥ and ≤ were set here for values at or beyond the usual limits of such assays. Conditions: source organism: Homo sapiens.
In test [4] the target is HLA-B*18:01. Described as above. The following applies: source organism: Homo sapiens.
Another test addresses HLA-B*27:03. The test is described as above. The following applies: source organism: Homo sapiens.
In test [5] the target is HLA-B*07:02. Put plainly: IEDB peptide-MHC binding, purified MHC/competitive/radioactivity; filed as Kd, often an IC50 or EC50 that approximates it; ≥ and ≤ were set here for values at or beyond the usual limits of such assays.
For another test, the target named is HLA-B*51:01. Described as above.
In the next test the target is HLA-B*53:01. The test is described as above.
The target in test [6] is HLA-B*18:01. Put plainly: IEDB peptide-MHC binding, purified MHC/direct/fluorescence; filed as Kd, often an IC50 or EC50 that approximates it; ≥ and ≤ were set here for values at or beyond the usual limits of such assays. The following applies: source organism: Orthohantavirus hantanense.
A further test addresses HLA-A*02:12. The description is as above. Conditions: source organism: Mycobacterium tuberculosis str. Haarlem.
The target of another test is HLA-A*24:03. Described as above. Conditions: source organism: Coxiella burnetii.
Setting [7] is: source organism: Vibrio parahaemolyticus.
The mark [8] stands for this setting: source organism: Giardia lamblia ATCC 50803.
Where [9] appears, read: source organism: Dengue virus 3 Sri Lanka/1266/2000.
Setting [10] is: source organism: Dengue virus 2 Jamaica/1409/1983.
Where [11] appears, read: source organism: Dengue virus 4 Philippines/H241/1956.
[12] abbreviates: source organism: Salmonella enterica subsp. enterica serovar Typhi.
The mark [13] stands for this setting: source organism: Orthohantavirus hantanense.
Where [14] appears, read: source organism: Dengue virus 3 Martinique/1243/1999.
The mark [15] stands for this setting: source organism: Coxiella burnetii.

With EIPGSPGSY, the Kd with HLA-A*01:01 (setting [7]) is no less than 20 µM; with HLA-A*02:01 [1] (setting [7]), no less than 20 µM; with HLA-A*03:01 (setting [7]) it was no less than 20 µM; in the test with HLA-A*11:01 (setting [7]) it was no less than 20 µM; in the test with HLA-A*26:01 (setting [7]) it was 0.105 µM; with HLA-A*31:01 (setting [7]) it was no less than 20 µM. In addition, the Kd with HLA-A*69:01 (setting [7]), in the test with HLA-B*07:02 [2] (setting [7]), with HLA-B*08:01 (setting [7]), with HLA-B*15:01 (setting [7]), in the test with HLA-B*27:05 (setting [7]) and with HLA-B*40:01 (setting [7]) was no less than 20 µM throughout. For the same sequence, the equilibrium dissociation constant (Kd) with HLA-B*44:02 (setting [7]) and in the test with HLA-B*58:01 (setting [7]) was no less than 20 µM in each case.
In the case of GVRQFSGWM, the dissociation constant (Kd) in the test with HLA-B*07:02 [2] (source organism: Homo sapiens) is 0.0221 µM; with HLA-A*02:01 [3] it was no less than 20 µM; with HLA-B*18:01 [4], no less than 20 µM; with HLA-B*27:03 it was no less than 20 µM.
With IHKPRPPAT, the Kd in the test with HLA-A*01:01 (setting [8]), with HLA-A*02:01 [1] (setting [8]), with HLA-A*03:01 (setting [8]), with HLA-A*11:01 (setting [8]), in the test with HLA-A*26:01 (setting [8]) and with HLA-A*31:01 (setting [8]) was no less than 20 µM in each case. In addition, the Kd with HLA-A*69:01 (setting [8]), with HLA-B*07:02 [2] (setting [8]), with HLA-B*08:01 (setting [8]), in the test with HLA-B*15:01 (setting [8]), with HLA-B*27:05 (setting [8]) and with HLA-B*40:01 (setting [8]) was no less than 20 µM throughout. Also, the Kd with HLA-B*44:02 (setting [8]) and with HLA-B*58:01 (setting [8]) was no less than 20 µM in each case.
For the sequence LPAALAFHL, the results for the dissociation constant Kd with HLA-B*07:02 [5] (setting [9]), with HLA-B*51:01 (setting [9]) and in the test with HLA-B*53:01 (setting [9]) were 0.0724 µM, 0.828 µM and 0.0107 µM, respectively.
As to NPWMEDKTPV, the Kd with HLA-B*07:02 [5] (setting [10]) was 0.0557 µM.
Take QPQWIAASII: the Kd amounted to 0.291 µM with HLA-B*07:02 [5] (setting [11]) and 0.719 µM with HLA-B*51:01 (setting [11]).
On to REILFHNTM, for which the Kd with HLA-A*01:01 (setting [12]), with HLA-A*02:01 [1] (setting [12]), with HLA-A*03:01 (setting [12]), with HLA-A*11:01 (setting [12]), with HLA-A*26:01 (setting [12]) and in the test with HLA-A*31:01 (setting [12]) was no less than 20 µM throughout. Moreover, the Kd in the test with HLA-A*69:01 (setting [12]) was no less than 20 µM; with HLA-B*07:02 [2] (setting [12]), no less than 20 µM; in the test with HLA-B*08:01 (setting [12]) it was 1.31 µM; in the test with HLA-B*15:01 (setting [12]), 0.18 µM; in the test with HLA-B*27:05 (setting [12]), no less than 20 µM; with HLA-B*40:01 (setting [12]), 0.00566 µM. Also, the Kd in the test with HLA-B*44:02 (setting [12]) and with HLA-B*58:01 (setting [12]) was no less than 20 µM each time.
As to RELGLDISL, the results for the equilibrium dissociation constant (Kd) with HLA-B*18:01 [6], in the test with HLA-B*40:01 (setting [13]) and with HLA-B*44:02 (setting [13]) were 0.0027 µM, 0.0012 µM and 3.28 µM, respectively.
In the case of RPGYHTQTA, in the test with HLA-B*07:02 [5] (setting [10]), the equilibrium dissociation constant (Kd) turned out to be 0.00961 µM.
As for RPTPKGTVMD, the Kd with HLA-B*07:02 [5] (source organism: Dengue virus 3 Singapore/8120/1995) came to 0.061 µM.
Take SPKRLSAAIG: in the test with HLA-B*07:02 [5] (source organism: Dengue virus 1 Brazil/97-11/1997), the dissociation constant Kd stood at 0.125 µM.
For TPFAEYTNSV, the Kd with HLA-B*07:02 [5] (setting [11]) amounted to 0.0729 µM; with HLA-B*51:01 (setting [11]), 0.813 µM.
TPRGTVMDII: the Kd turned out to be 0.0062 µM in the test with HLA-B*07:02 [5] (setting [10]) and 2.42 µM in the test with HLA-B*51:01 (setting [10]).
Regarding VPMSTYGWNI, the results for the equilibrium dissociation constant (Kd) with HLA-B*07:02 [5] (setting [14]), with HLA-B*51:01 (setting [14]) and with HLA-B*53:01 (setting [14]) were 0.0605 µM, 0.0917 µM and 0.0445 µM, respectively.
Turning to WLSQTTLSV, the Kd with HLA-A*02:12 turned out to be 0.003 µM.
On to YYYNFSEDL, for which the Kd with HLA-A*01:01 (setting [15]) was no less than 20 µM; with HLA-A*02:01 [1] (setting [15]) it was no less than 20 µM; in the test with HLA-A*03:01 (setting [15]), no less than 20 µM; with HLA-A*11:01 (setting [15]) it was no less than 20 µM; with HLA-A*24:03 it was 0.00105 µM; in the test with HLA-A*26:01 (setting [15]), no less than 20 µM. Moreover, the Kd in the test with HLA-A*69:01 (setting [15]), with HLA-B*07:02 [2] (setting [15]), with HLA-B*08:01 (setting [15]), in the test with HLA-B*15:01 (setting [15]), in the test with HLA-B*27:05 (setting [15]) and in the test with HLA-B*40:01 (setting [15]) was no less than 20 µM each time. Further, the dissociation constant Kd with HLA-B*44:02 (setting [15]) and in the test with HLA-B*58:01 (setting [15]) was no less than 20 µM in each case.

In general, Kd refers to the equilibrium constant for the complex coming apart.

The record behind these values is the Immune Epitope Database (IEDB).
